The values that follow are results of earlier work, collected in paper PMC6239910.

This data set deals with Ube2D3-Ub conjugate (Homo sapiens) (UniProt P61077).
Chain of Ube2D3-Ub conjugate (Homo sapiens) (P61077 whole entry): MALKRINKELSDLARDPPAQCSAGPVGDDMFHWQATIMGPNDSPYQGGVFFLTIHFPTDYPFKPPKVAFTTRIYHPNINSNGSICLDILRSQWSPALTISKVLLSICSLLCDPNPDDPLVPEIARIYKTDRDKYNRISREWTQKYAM

Chain of UHRF1 (Q96T88 whole entry): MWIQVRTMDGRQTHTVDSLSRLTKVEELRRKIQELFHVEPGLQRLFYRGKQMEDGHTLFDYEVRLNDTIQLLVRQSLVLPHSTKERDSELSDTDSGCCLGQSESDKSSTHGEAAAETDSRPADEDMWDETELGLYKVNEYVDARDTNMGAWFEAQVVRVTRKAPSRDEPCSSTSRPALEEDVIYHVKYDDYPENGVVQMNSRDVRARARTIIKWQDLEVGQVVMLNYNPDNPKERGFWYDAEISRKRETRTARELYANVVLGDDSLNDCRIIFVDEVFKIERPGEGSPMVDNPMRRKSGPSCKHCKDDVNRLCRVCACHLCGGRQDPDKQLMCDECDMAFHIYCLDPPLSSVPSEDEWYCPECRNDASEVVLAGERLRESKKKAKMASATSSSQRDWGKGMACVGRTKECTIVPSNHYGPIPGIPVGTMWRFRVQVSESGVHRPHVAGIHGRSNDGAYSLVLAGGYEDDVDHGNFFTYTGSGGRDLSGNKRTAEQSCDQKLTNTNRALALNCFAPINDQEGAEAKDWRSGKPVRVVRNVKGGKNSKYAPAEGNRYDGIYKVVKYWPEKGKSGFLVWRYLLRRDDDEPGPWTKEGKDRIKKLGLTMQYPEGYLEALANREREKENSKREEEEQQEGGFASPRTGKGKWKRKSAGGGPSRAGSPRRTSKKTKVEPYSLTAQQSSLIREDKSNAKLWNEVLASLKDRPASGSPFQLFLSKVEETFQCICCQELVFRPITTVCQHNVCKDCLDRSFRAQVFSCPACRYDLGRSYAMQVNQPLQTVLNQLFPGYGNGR

For UHRF1 (from UniProt Q96T88), the Kd was 3.2 µM.

By Kd is commonly meant the free concentration of one partner at which half of the binding sites on the other are occupied at equilibrium, for simple one-to-one binding.
